Assay results reported in patent publication US6686450.

System: Cabin 1-14
Sequence (chain, as listed by the source): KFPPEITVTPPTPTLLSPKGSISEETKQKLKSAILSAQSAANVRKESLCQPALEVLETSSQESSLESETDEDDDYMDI

## calcineurin (endogenous, Jurkat T cells)
  dephosphorylation of ΔNF-AT1 (Western blot gel shift) upon ionomycin with or without PMA: Overexpression of Cabin 1-14 inhibited the dephosphorylation of ΔNF-AT 1 upon treatment with ionomycin in the presence or absence of PMA
